What is called Kd is a measure of binding affinity in units of concentration. A higher Kd goes with lower affinity.

Experimental findings from publication PMC10786891, “Massively parallel profiling of RNA-targeting CRISPR-Cas13d” are described below.

Sequences and labels used below:
T1: EsCas13d, nuclease-dead (Eubacterium siraeum, UniProt B0MS50, R295A;H300A;R849A;H854A)
T1 sequence: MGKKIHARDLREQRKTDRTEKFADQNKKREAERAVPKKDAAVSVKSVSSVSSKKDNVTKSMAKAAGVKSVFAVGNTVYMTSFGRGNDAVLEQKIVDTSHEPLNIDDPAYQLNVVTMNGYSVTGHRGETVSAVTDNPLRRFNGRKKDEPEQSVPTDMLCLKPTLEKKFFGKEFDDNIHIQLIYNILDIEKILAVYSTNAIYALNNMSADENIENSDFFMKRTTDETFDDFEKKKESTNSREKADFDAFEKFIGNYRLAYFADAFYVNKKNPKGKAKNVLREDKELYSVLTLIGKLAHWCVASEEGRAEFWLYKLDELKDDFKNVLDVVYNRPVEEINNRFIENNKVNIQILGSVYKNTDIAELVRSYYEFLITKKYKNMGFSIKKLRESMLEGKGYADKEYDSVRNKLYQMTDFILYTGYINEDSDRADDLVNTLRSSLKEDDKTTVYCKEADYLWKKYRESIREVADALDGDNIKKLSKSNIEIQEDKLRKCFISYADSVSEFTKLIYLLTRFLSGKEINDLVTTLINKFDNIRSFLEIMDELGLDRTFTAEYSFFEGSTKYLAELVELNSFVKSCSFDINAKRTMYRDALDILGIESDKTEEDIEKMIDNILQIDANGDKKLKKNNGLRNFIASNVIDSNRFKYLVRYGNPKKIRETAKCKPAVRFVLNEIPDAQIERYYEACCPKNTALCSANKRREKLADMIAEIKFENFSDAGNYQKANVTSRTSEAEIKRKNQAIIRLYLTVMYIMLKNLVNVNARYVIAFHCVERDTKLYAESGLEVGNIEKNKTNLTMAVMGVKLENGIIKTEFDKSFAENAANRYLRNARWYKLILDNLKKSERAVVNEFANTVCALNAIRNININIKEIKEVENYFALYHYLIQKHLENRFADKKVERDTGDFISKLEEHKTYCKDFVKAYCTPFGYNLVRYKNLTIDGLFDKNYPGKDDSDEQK

B1: target 2 MT 5'PFS GUA 3'PFS UUU (mixed)
RNA 1: CACCCGUGCAAAAUUGCAGGGGUCUAAAACCUUCUCCAAAUUGUUUCAUCCU
RNA 2: GGGAAUGGAUCCACAUCUACGAAUUCGUAAGGAUGAAACAAUUUGGAGAAGUUUAGAUCGGAAGAGCACACGU
B2: target 2 MT 5'PFS CUG 3'PFS CCA (mixed)
RNA 1: CACCCGUGCAAAAUUGCAGGGGUCUAAAACCUUCUCCAAAUUGUUUCAUCCU
RNA 2: GGGAAUGGAUCCACAUCUACGAAUUCCUGAGGAUGAAACAAUUUGGAGAAGCCAAGAUCGGAAGAGCACACGU
B3: target 2 MT 5'PFS GAU 3'PFS CGC (mixed)
RNA 1: CACCCGUGCAAAAUUGCAGGGGUCUAAAACCUUCUCCAAAUUGUUUCAUCCU
RNA 2: GGGAAUGGAUCCACAUCUACGAAUUCGAUAGGAUGAAACAAUUUGGAGAAGCGCAGAUCGGAAGAGCACACGU
B4: target 2 MT 5'PFS AAG 3'PFS CAG (mixed)
RNA 1: CACCCGUGCAAAAUUGCAGGGGUCUAAAACCUUCUCCAAAUUGUUUCAUCCU
RNA 2: GGGAAUGGAUCCACAUCUACGAAUUCAAGAGGAUGAAACAAUUUGGAGAAGCAGAGAUCGGAAGAGCACACGU
B5: target 2 MT 5'PFS ACU 3'PFS AGC (mixed)
RNA 1: CACCCGUGCAAAAUUGCAGGGGUCUAAAACCUUCUCCAAAUUGUUUCAUCCU
RNA 2: GGGAAUGGAUCCACAUCUACGAAUUCACUAGGAUGAAACAAUUUGGAGAAGAGCAGAUCGGAAGAGCACACGU
B6: target 2 MT 5'PFS UGA 3'PFS UAA (mixed)
RNA 1: CACCCGUGCAAAAUUGCAGGGGUCUAAAACCUUCUCCAAAUUGUUUCAUCCU
RNA 2: GGGAAUGGAUCCACAUCUACGAAUUCUGAAGGAUGAAACAAUUUGGAGAAGUAAAGAUCGGAAGAGCACACGU
B7: target 2 MT 5'PFS CGA 3'PFS UCA (mixed)
RNA 1: CACCCGUGCAAAAUUGCAGGGGUCUAAAACCUUCUCCAAAUUGUUUCAUCCU
RNA 2: GGGAAUGGAUCCACAUCUACGAAUUCCGAAGGAUGAAACAAUUUGGAGAAGUCAAGAUCGGAAGAGCACACGU
B8: target 2 MT 5'PFS UUC 3'PFS AUA (mixed)
RNA 1: CACCCGUGCAAAAUUGCAGGGGUCUAAAACCUUCUCCAAAUUGUUUCAUCCU
RNA 2: GGGAAUGGAUCCACAUCUACGAAUUCUUCAGGAUGAAACAAUUUGGAGAAGAUAAGAUCGGAAGAGCACACGU
B9: target 2 MT 5'PFS GAU 3'PFS CGU (mixed)
RNA 1: CACCCGUGCAAAAUUGCAGGGGUCUAAAACCUUCUCCAAAUUGUUUCAUCCU
RNA 2: GGGAAUGGAUCCACAUCUACGAAUUCGAUAGGAUGAAACAAUUUGGAGAAGCGUAGAUCGGAAGAGCACACGU
B10: target 2 MT 5'PFS ACU 3'PFS AGG (mixed)
RNA 1: CACCCGUGCAAAAUUGCAGGGGUCUAAAACCUUCUCCAAAUUGUUUCAUCCU
RNA 2: GGGAAUGGAUCCACAUCUACGAAUUCACUAGGAUGAAACAAUUUGGAGAAGAGGAGAUCGGAAGAGCACACGU
B11: target 2 MT 5'PFS AGU 3'PFS AUA (mixed)
RNA 1: CACCCGUGCAAAAUUGCAGGGGUCUAAAACCUUCUCCAAAUUGUUUCAUCCU
RNA 2: GGGAAUGGAUCCACAUCUACGAAUUCAGUAGGAUGAAACAAUUUGGAGAAGAUAAGAUCGGAAGAGCACACGU
B12: target 2 MT 5'PFS GCA 3'PFS ACU (mixed)
RNA 1: CACCCGUGCAAAAUUGCAGGGGUCUAAAACCUUCUCCAAAUUGUUUCAUCCU
RNA 2: GGGAAUGGAUCCACAUCUACGAAUUCGCAAGGAUGAAACAAUUUGGAGAAGACUAGAUCGGAAGAGCACACGU
B13: target 2 MT 5'PFS UGA 3'PFS UAC (mixed)
RNA 1: CACCCGUGCAAAAUUGCAGGGGUCUAAAACCUUCUCCAAAUUGUUUCAUCCU
RNA 2: GGGAAUGGAUCCACAUCUACGAAUUCUGAAGGAUGAAACAAUUUGGAGAAGUACAGAUCGGAAGAGCACACGU
B14: target 2 MT 5'PFS AAG 3'PFS CAU (mixed)
RNA 1: CACCCGUGCAAAAUUGCAGGGGUCUAAAACCUUCUCCAAAUUGUUUCAUCCU
RNA 2: GGGAAUGGAUCCACAUCUACGAAUUCAAGAGGAUGAAACAAUUUGGAGAAGCAUAGAUCGGAAGAGCACACGU
B15: target 2 MT 5'PFS CUG 3'PFS CCU (mixed)
RNA 1: CACCCGUGCAAAAUUGCAGGGGUCUAAAACCUUCUCCAAAUUGUUUCAUCCU
RNA 2: GGGAAUGGAUCCACAUCUACGAAUUCCUGAGGAUGAAACAAUUUGGAGAAGCCUAGAUCGGAAGAGCACACGU
B16: target 2 MT 5'PFS ACU 3'PFS AGA (mixed)
RNA 1: CACCCGUGCAAAAUUGCAGGGGUCUAAAACCUUCUCCAAAUUGUUUCAUCCU
RNA 2: GGGAAUGGAUCCACAUCUACGAAUUCACUAGGAUGAAACAAUUUGGAGAAGAGAAGAUCGGAAGAGCACACGU
B17: target 2 MT 5'PFS GUG 3'PFS UAC (mixed)
RNA 1: CACCCGUGCAAAAUUGCAGGGGUCUAAAACCUUCUCCAAAUUGUUUCAUCCU
RNA 2: GGGAAUGGAUCCACAUCUACGAAUUCGUGAGGAUGAAACAAUUUGGAGAAGUACAGAUCGGAAGAGCACACGU
B18: target 2 MT 5'PFS GUA 3'PFS UUC (mixed)
RNA 1: CACCCGUGCAAAAUUGCAGGGGUCUAAAACCUUCUCCAAAUUGUUUCAUCCU
RNA 2: GGGAAUGGAUCCACAUCUACGAAUUCGUAAGGAUGAAACAAUUUGGAGAAGUUCAGAUCGGAAGAGCACACGU
B19: target 2 MT 5'PFS GUA 3'PFS AUA (mixed)
RNA 1: CACCCGUGCAAAAUUGCAGGGGUCUAAAACCUUCUCCAAAUUGUUUCAUCCU
RNA 2: GGGAAUGGAUCCACAUCUACGAAUUCGUAAGGAUGAAACAAUUUGGAGAAGAUAAGAUCGGAAGAGCACACGU
B20: target 2 MT 5'PFS AUG 3'PFS ACG (mixed)
RNA 1: CACCCGUGCAAAAUUGCAGGGGUCUAAAACCUUCUCCAAAUUGUUUCAUCCU
RNA 2: GGGAAUGGAUCCACAUCUACGAAUUCAUGAGGAUGAAACAAUUUGGAGAAGACGAGAUCGGAAGAGCACACGU
B21: target 2 MT 5'PFS GUA 3'PFS UUA (mixed)
RNA 1: CACCCGUGCAAAAUUGCAGGGGUCUAAAACCUUCUCCAAAUUGUUUCAUCCU
RNA 2: GGGAAUGGAUCCACAUCUACGAAUUCGUAAGGAUGAAACAAUUUGGAGAAGUUAAGAUCGGAAGAGCACACGU
B22: target 2 MT 5'PFS AGU 3'PFS AUC (mixed)
RNA 1: CACCCGUGCAAAAUUGCAGGGGUCUAAAACCUUCUCCAAAUUGUUUCAUCCU
RNA 2: GGGAAUGGAUCCACAUCUACGAAUUCAGUAGGAUGAAACAAUUUGGAGAAGAUCAGAUCGGAAGAGCACACGU
B23: target 2 MT 5'PFS AAG 3'PFS CAC (mixed)
RNA 1: CACCCGUGCAAAAUUGCAGGGGUCUAAAACCUUCUCCAAAUUGUUUCAUCCU
RNA 2: GGGAAUGGAUCCACAUCUACGAAUUCAAGAGGAUGAAACAAUUUGGAGAAGCACAGAUCGGAAGAGCACACGU
B24: target 2 MT 5'PFS GAU 3'PFS CGA (mixed)
RNA 1: CACCCGUGCAAAAUUGCAGGGGUCUAAAACCUUCUCCAAAUUGUUUCAUCCU
RNA 2: GGGAAUGGAUCCACAUCUACGAAUUCGAUAGGAUGAAACAAUUUGGAGAAGCGAAGAUCGGAAGAGCACACGU
B25: target 2 MT 5'PFS CUG 3'PFS CCG (mixed)
RNA 1: CACCCGUGCAAAAUUGCAGGGGUCUAAAACCUUCUCCAAAUUGUUUCAUCCU
RNA 2: GGGAAUGGAUCCACAUCUACGAAUUCCUGAGGAUGAAACAAUUUGGAGAAGCCGAGAUCGGAAGAGCACACGU
B26: target 1 del4,del7 (mixed)
RNA 1: CACCCGUGCAAAAAUGCAGGGGUCUAAAACUGAGCGGAUAACCUCUCUAUGG
RNA 2: GGGAAUGGAUCCACAUCUACGAAUUCGUACCAUAGAGAGGUUAUCGUCACCGAGAUCGGAAGAGCACACGU
B27: target 1 insU 3' of 21,insC 3' of 19 (mixed)
RNA 1: CACCCGUGCAAAAAUGCAGGGGUCUAAAACUGAGCGGAUAACCUCUCUAUGG
RNA 2: GGGAAUGGAUCCACAUCUACGAAUUCGUACCUAUCAGAGAGGUUAUCCGCUCACCGAGAUCGGAAGAGCACACGU

For this series, the target named is T1, EsCas13d, nuclease-dead. Put plainly: crRNA (strand 1, pre-loaded); Mg2+; 40 mM Tris-HCl pH 7.5, 150 mM NaCl, 6 mM MgCl2, 1 mM DTT, 0.1% Tween-20, 0.2 mg/ml BSA; 25 C; 10 min per concentration, then washed. The following applies: tags: His6-TwinStrep-SUMO cleaved; N-terminal SNAP kept (SNAP-Surface 488); label: 3' end held by stalled T7 RNA polymerase.
As to B1, the affinity, expressed as Kd, was 62 ± 18 nM.
Then B2, with 14.9 ± 3.1 nM.
Molecule B3 showed a Kd of 12.7 ± 2 nM.
In turn, B4 showed a Kd of 4.2 ± 0.7 nM.
In the case of B5 it was 3.18 ± 0.3 nM; in that of B6, 6 ± 1.3 nM.
Take B7: the Kd is roughly 26 nM.
The molecule B8 came in with a Kd of 16 ± 5 nM.
B9: the Kd amounted to 14.1 ± 2.6 nM.
Turning to B10, the Kd turned out to be 4.5 ± 0.6 nM.
Regarding B11, the Kd is 10.3 ± 1.5 nM.
In the case of B12 it was 13.2 ± 1.8 nM; in that of B13, 9.1 ± 1.6 nM.
Then B14, with 3.4 ± 0.5 nM.
Then B15, with 57 ± 22 nM.
Molecule B16 displayed a Kd of 3.7 ± 0.5 nM.
B17: the Kd was 15.1 ± 1.5 nM.
In the case of B18 it was 42 ± 11 nM; in that of B19, 6.1 ± 0.7 nM; in that of B20, 12.6 ± 2.1 nM.
B21: the Kd worked out at 22 ± 4 nM.
B22 had a Kd of 16.7 ± 3.2 nM.
In turn, B23 showed a Kd of 2.9 ± 1 nM.
Regarding B24, the Kd is 10.9 ± 1.4 nM.
On to B25, for which binding was characterised by a dissociation constant (Kd) of 4.06 ± 0.2 nM.
For the molecule B26, the Kd was 5.34 ± 0.24 nM.
In the case of B27 it was roughly 100 nM.
